Source: patent publication US20250064956A1, “METHODS FOR TREATING MUSCLE INVASIVE UROTHELIAL CANCER OR MUSCLE INVASIVE BLADDER CANCER WITH ANTIBODY DRUG CONJUGATES (ADC) THAT BIND TO 191P4D12 PROTEINS” (AGENSYS, INC., priority 2022, published 2025)

Key:
[1] = tested on: acute myeloid leukemia (AML) at relapse; details: administered alone; cited from earlier work
[2] = tested on: cisplatin-ineligible patients with T2 T4N0M0 MIBC; details: cited from earlier work
[3] = tested on: patients receiving enfortumab vedotin; experiment: Reports of severe cutaneous adverse reactions in patients receiving enfortumab vedotin; type: in vivo, human
Description: These reactions occurred predominantly during the first cycle of treatment. AEs reported in these cases included Stevens-Johnson Syndrome (SJS) (5 cases), blister (3 cases), dermatitis bullous (3 cases), symmetrical drug-related intertriginous and flexural exanthema (SDRIFE; 2 cases), and 1 case each of dermatitis exfoliative, exfoliative rash, epidermal necrosis, oropharyngeal blistering, stomatitis, and toxic epidermal necrolysis (TEN).

[4] = tested on: urothelial carcinoma subjects; experiment: Enfortumab vedotin monotherapy studies of urothelial carcinoma, SAEs of severe cutaneous adverse reactions; type: in vivo, human
[5] = tested on: cisplatin-ineligible patients with muscle invasive bladder cancer (MIBC); experiment: Phase 1b/2 study (Cohort H): neoadjuvant EV monotherapy followed by RC+PLND, antitumor activity (pCR, pDS, EFS); type: in vivo, human
Method: Treatment with enfortumab vedotin monotherapy is evaluated in patients with MIBC. This study enrolls approximately 20 patients with cT2-T4aN0M0 MIBC.
pCR is the primary endpoint and is defined as the absence of viable tumor (pT0N0) in examined tissue from RC+PLND. pCR is assessed by central pathology review after RC+PLND with curative intent. Post-RC restaging is performed via the same radiologic modalities at the first follow-up disease assessment scan (12 weeks after RC+PLND). During the first 2 years on study, follow-up is performed every 12 weeks (±14 days) from RC+PLND until disease progression/recurrence, patient death study closure, or withdrawal of consent, whichever occurs first. After 2 years on study, the frequency of visits including response assessments is reduced to every 24 weeks (±14 days). Tumor imaging should also be performed whenever disease progression is suspected.
Radiographic disease progression precluding a curative intent surgery noted prior to RC+PLND, failure to undergo RC+PLND for patients with residual muscle invasive disease and/or any radiographic disease present, gross residual disease left behind at time of RC+PLND, local or distant recurrence post-RC as assessed radiographically and/or confirmed with biopsy (local pathology review), or death from any cause are considered EFS events. Patients who are found to have EFS events but are still alive are to transition into long-term follow-up.
Tumor tissue samples collected from the patient's diagnostic TURBT within 90 days prior to the first dose of study treatment are sent for central pathology review. Tissue samples from RC+PLND will also be sent for central pathology review of pathologic response assessment. Tumor response is assessed after RC+PLND with curative intent by pathology review analysis. Pathologic staging information includes TNM classification, histology, lymph node counts, and surgical margins.
The pCRR is defined as the proportion of patients having pCR. pCR is defined as the absence of viable tumor (pT0N0) in examined tissue from RC+PLND.
pDSR is defined as the proportion of patients having pDS. pDS is defined as patients with <pT2 (includes pT0, pTis, pTa, pT1) and N0 in examined tissue from RC+PLND.
EFS is defined as the time from the start of study treatment to the first occurrence of any of the following events: • Radiographic disease progression precluding a curative intent surgery prior to RC+PLND • Failure to undergo RC+PLND for participants with residual muscle-invasive disease and/or any radiographic disease present • Gross residual disease left behind at time of RC+PLND (surgeon unable to complete curative intent surgery due to unresectable tumor or newly discovered metastatic disease) • Local or distant recurrence post-RC as assessed by CT or MRI and/or biopsy. If biopsy is not feasible due to participant safety, CT/MRI alone is sufficient • Death from any cause
Patients who refuse surgery but without a post-screening scan are censored at study day 1.
(§1) The methods for this Section 6.2 (Example 2) were as described in Section 6.1 (Example 1). […] Patients received 3 cycles of neoadjuvant EV (1.25 mg/kg) on Days 1 and 8 of every 3-week cycle prior to RC+PLND. The primary endpoint of the study was pathological complete response rate (pCRR; ypT0N0) by central review. Key secondary endpoints included pathological downstaging (pDS) rate (yp T0, Tis, Ta, T1,N0) and safety.

[6] = tested on: cisplatin-ineligible patients with muscle invasive bladder cancer (MIBC); experiment: Phase 1b/2 study (Cohort H): safety, tolerability, exposure and disposition with neoadjuvant EV monotherapy and RC+PLND; type: in vivo, human
Description: Safety assessments are based on the information collected through the safety surveillance process and will include the data from recorded AEs, including serious adverse events (SAEs), concomitant medications, physical examination findings, cardiac monitoring, and laboratory tests. Safety is monitored over the course of the study by the SMC.
The safety analysis evaluates the type, incidence, severity, seriousness, and relatedness of AEs, and the type, incidence, and severity of laboratory abnormalities. The incidence, duration, and resolution of AEs of special interest (AESIs) are summarized.
The assessment of safety during the course of this study will consist of the surveillance and recording of AEs including SAEs, recording of concomitant medication, and measurements of protocol-specified physical examination findings, cardiac monitoring, and laboratory tests.
AE severity should be graded using the National Cancer Institute's Common Terminology Criteria for Adverse Events (NCI CTCAE), Version 4.03.
An overview of AEs provide a tabulation, by cohort and overall, of the incidence of all AEs, TEAEs, treatment-related AEs, Grade 3 and higher AEs, SAEs, treatment-related SAEs, deaths, and AEs leading to study treatment discontinuation. AEs are defined as treatment emergent if they are newly occurring or worsen following study treatment.
AEs are listed and summarized by Medical Dictionary for Regulatory Activities (MedDRA), preferred term, severity, and relationship to study drug. In the event of multiple occurrences of the same AE with the same preferred term in 1 patient, the AE are counted once as the occurrence. The incidence of AEs are tabulated by preferred term and cohorts. AEs leading to premature discontinuation of study drug are summarized and listed in the same manner.
as §1

[7] = tested on: patients with T2 T3bN0M0 MIBC; details: cited from earlier work
[8] = 2 cycles of 1200 mg prior to RC, 69 patients
[9] = 2 cycles of 1200 mg prior to RC
[10] = EFS by investigator assessment, EV Mono N = 22
[11] = Present study, cisplatin ineligible, EV monotherapy x 3 cycles, sample size 22
[12] = by investigator assessment, N = 22

CT-011
response in treating acute myeloid leukemia (AML) at relapse [1]: failed to show response

atezolizumab
pCR, patients [2, 8]: 29% | safety findings [2, 8]: no significant safety findings | pCR, PD-L1-negative cohort [2, 9]: 16% | pCR, patients with PD-L1-positive disease [2, 9]: 40% | patients down staged to non-muscle invasive disease [2, 9]: 39% | PCR (no viable tumor at surgery), ypT0 + ypTis ([2]; ABACUS, cisplatin ineligible, Atezolizumab x 2, sample size 88): 31% (ypT0 +

enfortumab vedotin
severe cutaneous adverse reaction reports: SDRIFE ([3]; 15 patients): 2 cases | severe cutaneous adverse reaction reports: Stevens-Johnson Syndrome (SJS) ([3]; 15 patients): 5 cases | severe cutaneous adverse reaction reports: blister ([3]; 15 patients): 3 cases | severe cutaneous adverse reaction reports: dermatitis bullous ([3]; 15 patients): 3 cases | severe cutaneous adverse reaction reports: dermatitis exfoliative ([3]; 15 patients): 1 case | severe cutaneous adverse reaction reports: epidermal necrosis ([3]; 15 patients): 1 case | severe cutaneous adverse reaction reports: exfoliative rash ([3]; 15 patients): 1 case | severe cutaneous adverse reaction reports: oropharyngeal blistering ([3]; 15 patients): 1 case | severe cutaneous adverse reaction reports: stomatitis ([3]; 15 patients): 1 case | severe cutaneous adverse reaction reports: toxic epidermal necrolysis (TEN) ([3]; 15 patients): 1 case | patients with reports of severe cutaneous adverse reactions ([3]; some had fatal outcomes, predominantly during the first cycle): 15 patients | SAE of severe cutaneous adverse reaction: SJS ([4]; 749 subjects): 0.1% | SAE of severe cutaneous adverse reaction: blister ([4]; 749 subjects): 0.1% | SAE of severe cutaneous adverse reaction: conjunctivitis ([4]; 749 subjects): 0.1% | SAE of severe cutaneous adverse reaction: dermatitis bullous ([4]; 749 subjects): 0.4% | SAE of severe cutaneous adverse reaction: drug eruption ([4]; 749 subjects): 0.4% | SAE of severe cutaneous adverse reaction: stomatitis ([4]; 749 subjects): 0.1% | SAE of severe cutaneous adverse reaction: toxic skin eruption ([4]; 749 subjects): 0.1% | SAEs of severe cutaneous adverse reactions ([4]; 749 subjects): 1.5% | SAEs of severe cutaneous adverse reactions ([4]; of 749 subjects, EV monotherapy studies of urothelial carcinoma): 11 subjects

enfortumab vedotin [EV Mono]
pathological complete response (pCR), patients ([5]; 3 cycles neoadjuvant EV 1.25 mg/kg Days 1 and 8 of 3-week cycle, preliminary analysis of 22 patients): 36% | Number of subjects who have recurrence or died [5, 10]: 5 | Subjects who have recurrence or died, figure in parentheses (share of N = 22) [5, 10]: (22.7) | PCR (no viable tumor at surgery), ypT0 and ypTis [5, 11]: 45.5% (ypT0 | PCR (no viable tumor at surgery), ypT0 only [5, 11]: 32% (ypT0 | pDS (non-muscle invasive disease at surgery), includes pCR [5, 11]: 50% (includes | EFS Rate at 6 months [5, 12]: 88.2% | Event free-survival (EFS), 25th percentile [5, 12]: 6.7, — months | Event free-survival (EFS), median [5, 12]: not reached | Event free-survival (EFS), observed min [5, 12]: 2.60 months | Event free-survival (EFS), observed max ([5]; by investigator assessment, N = 22, + printed after value): ≥ 12.32 months | EFS Rate at 12 months ([5]; by investigator assessment, N = 22, one subject censored at study day 190 due to a data issue): 60.5% | pCRR compared with rates seen with chemotherapy in cisplatin-eligible MIUC patients ([5]; cisplatin-ineligible MIBC patients, neoadjuvant EV): compares favorably | AECI Any infusion related reactions, ≥Grade 3 ([6]; EV Mono N = 22): 0 n | AECI Any ocular disorder: Blurred vision, ≥Grade 3 ([6]; EV Mono N = 22): 0 n | AECI Any ocular disorder: Corneal disorders, Any Grade ([6]; EV Mono N = 22): 0 n | AECI Any ocular disorder: Corneal disorders, ≥Grade 3 ([6]; EV Mono N = 22): 0 n | AECI Any ocular disorder: Dry eye, ≥Grade 3 ([6]; EV Mono N = 22): 0 n | AECI Any peripheral neuropathy, ≥Grade 3 ([6]; EV Mono N = 22): 0 n | Any TEAEs leading to bladder surgery not performed ([6]; EV Mono N = 22): 0 n | EV-related TEAEs leading to bladder surgery not performed ([6]; EV Mono N = 22): 0 n | EV-related TEAEs leading to death ([6]; EV Mono N = 22): 0 n | RC-related TEAEs leading to death ([6]; EV Mono N = 22): 0 n | TEAE (Table 27) Hyperglycaemia ([6]; EV Mono N = 22, listed as EV): 13.6% | TEAE (Table 27) Small intestinal obstruction ([6]; EV Mono N = 22, listed as EV): 9.1% | TEAE (Table 27) Urinary tract infection ([6]; EV Mono N = 22, listed as EV): 9.1% | patients with Grade 3 or higher TEAEs ([6]; EV monotherapy and RC+PLND): 59.1% | tolerability of 3 cycles of neoadjuvant treatment ([6]; cisplatin-ineligible MIBC patients): well-tolerated | Grade 5 AE Acute Kidney Injury: Days from RC + PLND ([6]; in vivo): 62 days | Grade 5 AE Acute Kidney Injury: Days from last dose of EV ([6]; in vivo): 142 days | Grade 5 AE Cardiac Arrest: Days from RC + PLND ([6]; in vivo): 15 days | Grade 5 AE Cardiac Arrest: Days from last dose of EV ([6]; in vivo): 45 days | Grade 5 AE Saddle PE: Days from RC + PLND ([6]; in vivo): 55 days | Grade 5 AE Saddle PE: Days from last dose of EV ([6]; in vivo): 127 days | patients whose grade 5 AEs occurred >30 days after the end of study treatment ([6]; in vivo): 2 pts | patients with grade 5 adverse events while on the study ([6]; in vivo): 3 patients | observed safety profile of neoadjuvant EV monotherapy ([6]; patients in this study): consistent with the known safety profile of EV | Rash maculo-papular leading to EV discontinuation: AE onset after last EV dose ([6]; subject completed Cycle 2, Gr3): ^cSubject completed Cycle 2. AE onset occurred 4 days after last EV dose. (Gr3)

pembrolizumab
pCR rate ([7]; 3 cycles of 200 mg before RC, among 50 treated patients): 42% | pCR rate in patients with PD L1 positive disease ([7]; 3 cycles of 200 mg before RC): 54.3% | pathologic downstaging rate ([7]; 3 cycles of 200 mg before RC): 65.7% | safety of neoadjuvant administration ([7]; 3 cycles of 200 mg before RC): safely administered | pDS (non-muscle invasive disease at surgery), includes pCR ([7]; PURE-01, Pembrolizumab x 3, sample size 50): 54% (includes | PCR (no viable tumor at surgery) ([7]; PURE-01, cisplatin eligible (n = 42) and ineligible (n = 8), Pembrolizumab x 3, sample size 50): 42%
